# Reference: patent US20190127480A1 (Regeneron, published 2019)
# T1: soluble heterodimeric hCD3ε/δ.mFc protein (human)
# T1 construct: also called soluble human CD3; soluble heterodimeric CD3 protein
# T1 chain 1: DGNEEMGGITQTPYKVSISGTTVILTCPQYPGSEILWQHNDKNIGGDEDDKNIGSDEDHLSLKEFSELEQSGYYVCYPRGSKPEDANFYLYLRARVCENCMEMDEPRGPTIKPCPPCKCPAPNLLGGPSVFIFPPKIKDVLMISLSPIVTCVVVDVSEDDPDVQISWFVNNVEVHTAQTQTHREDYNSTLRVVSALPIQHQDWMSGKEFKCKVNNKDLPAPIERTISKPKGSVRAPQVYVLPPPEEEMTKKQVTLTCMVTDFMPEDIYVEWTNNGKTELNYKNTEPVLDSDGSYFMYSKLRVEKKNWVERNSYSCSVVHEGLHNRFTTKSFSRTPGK
# T1 chain 2: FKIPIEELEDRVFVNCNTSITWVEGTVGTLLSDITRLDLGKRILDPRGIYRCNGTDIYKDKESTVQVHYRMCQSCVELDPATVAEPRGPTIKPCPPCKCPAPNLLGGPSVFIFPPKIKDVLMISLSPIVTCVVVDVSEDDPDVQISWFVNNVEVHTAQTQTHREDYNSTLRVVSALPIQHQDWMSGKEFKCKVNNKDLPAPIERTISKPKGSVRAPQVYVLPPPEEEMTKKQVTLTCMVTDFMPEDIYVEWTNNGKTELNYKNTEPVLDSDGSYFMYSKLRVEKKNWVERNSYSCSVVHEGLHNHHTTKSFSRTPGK
# Columns and labels:
# [1] = biological target: cynomolgus monkey CD3 expressed on monkey T-cells (PBMCs) (cynomolgus monkey, UniProt Q95LI5 22-198; Q95LI8 22-171); assay: cell-based or functional assay
# Sequence of cynomolgus monkey CD3 expressed on monkey T-cells (PBMCs) (Q95LI5 22-198, chain 1 of 2): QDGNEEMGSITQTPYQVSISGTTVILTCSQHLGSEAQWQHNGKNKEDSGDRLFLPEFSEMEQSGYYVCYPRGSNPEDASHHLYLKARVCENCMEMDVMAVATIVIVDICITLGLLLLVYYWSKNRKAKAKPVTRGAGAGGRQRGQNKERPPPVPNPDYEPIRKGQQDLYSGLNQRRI
# Sequence of cynomolgus monkey CD3 expressed on monkey T-cells (PBMCs) (Q95LI8 22-171, chain 2 of 2): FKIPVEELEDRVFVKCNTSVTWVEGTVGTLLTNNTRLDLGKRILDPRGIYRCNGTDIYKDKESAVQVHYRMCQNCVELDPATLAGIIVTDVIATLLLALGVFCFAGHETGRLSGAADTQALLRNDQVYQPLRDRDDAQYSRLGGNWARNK
# [2] = biological target: T2, human CD3 expressed on cells (Jurkat cells; human T-cells of PBMC) (human, UniProt P09693 23-182; P20963 22-164); assay: FACS titration on Jurkat cells (CD3+ human T-cell line)
# T2 construct: whole, on cells; Native CD3 on the cell surface; also called hPBMC
# T2 sequence (chain, as listed by the source, chain 1 of 4): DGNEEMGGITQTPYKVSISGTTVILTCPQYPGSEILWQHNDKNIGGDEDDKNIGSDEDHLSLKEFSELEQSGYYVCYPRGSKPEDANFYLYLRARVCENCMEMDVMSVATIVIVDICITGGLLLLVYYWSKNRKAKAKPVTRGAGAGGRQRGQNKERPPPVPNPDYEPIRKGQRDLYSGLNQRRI
# T2 sequence (chain, as listed by the source, chain 2 of 4): as the sequence (Q95LI8 22-171, chain 2 of 2) above, with V5I, K15N, V20I, T32S, N33D, N34I, A64T, N74S, L83V, R141H counted along it
# T2 sequence (P09693 23-182, chain 3 of 4): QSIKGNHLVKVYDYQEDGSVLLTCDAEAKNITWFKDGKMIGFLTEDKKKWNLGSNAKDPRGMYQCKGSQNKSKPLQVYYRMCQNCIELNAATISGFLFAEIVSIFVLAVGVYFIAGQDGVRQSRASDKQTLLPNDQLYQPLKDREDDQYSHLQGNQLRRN
# T2 sequence (P20963 22-164, chain 4 of 4): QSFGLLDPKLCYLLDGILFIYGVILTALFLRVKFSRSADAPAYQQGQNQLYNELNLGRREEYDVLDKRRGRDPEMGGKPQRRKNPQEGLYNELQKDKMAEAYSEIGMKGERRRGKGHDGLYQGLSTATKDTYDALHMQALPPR
# Experimental: FACS data was acquired using the following protocol: Cells at 2×10⁵ per well were incubated with serially diluted antibodies for 30 min on ice. Post incubation, cells were washed and secondary antibody was added and incubated for an additional 30 minutes. After incubation, cells were washed, re-suspended in cold PBS containing 1% BSA and analyzed by flow cytometry with viable Jurkat cells gated by side and forward scatters. The EC₅₀s for cell binding titration were determined using Prism software with values calculated using a 4-parameter non-linear regression analysis.
# [3] = biological target: T2, human CD3 expressed on cells (Jurkat …); assay: cell-based or functional assay
# [4] = biological target: T2, human CD3 expressed on cells (Jurkat …); assay: cell-based or functional assay; remark: listed apart in the source
# [5] = biological target: T3, human PSMA on PSMA-expressing cells (human, UniProt Q04609 1-750); assay: FACS on B16F10.9/PSMA cells
# T3 construct: Cell line is named under assay or readout in each row; also called B16F10.9/hPSMA; B16F10.9/PSMA
# T3 sequence (Q04609 whole entry): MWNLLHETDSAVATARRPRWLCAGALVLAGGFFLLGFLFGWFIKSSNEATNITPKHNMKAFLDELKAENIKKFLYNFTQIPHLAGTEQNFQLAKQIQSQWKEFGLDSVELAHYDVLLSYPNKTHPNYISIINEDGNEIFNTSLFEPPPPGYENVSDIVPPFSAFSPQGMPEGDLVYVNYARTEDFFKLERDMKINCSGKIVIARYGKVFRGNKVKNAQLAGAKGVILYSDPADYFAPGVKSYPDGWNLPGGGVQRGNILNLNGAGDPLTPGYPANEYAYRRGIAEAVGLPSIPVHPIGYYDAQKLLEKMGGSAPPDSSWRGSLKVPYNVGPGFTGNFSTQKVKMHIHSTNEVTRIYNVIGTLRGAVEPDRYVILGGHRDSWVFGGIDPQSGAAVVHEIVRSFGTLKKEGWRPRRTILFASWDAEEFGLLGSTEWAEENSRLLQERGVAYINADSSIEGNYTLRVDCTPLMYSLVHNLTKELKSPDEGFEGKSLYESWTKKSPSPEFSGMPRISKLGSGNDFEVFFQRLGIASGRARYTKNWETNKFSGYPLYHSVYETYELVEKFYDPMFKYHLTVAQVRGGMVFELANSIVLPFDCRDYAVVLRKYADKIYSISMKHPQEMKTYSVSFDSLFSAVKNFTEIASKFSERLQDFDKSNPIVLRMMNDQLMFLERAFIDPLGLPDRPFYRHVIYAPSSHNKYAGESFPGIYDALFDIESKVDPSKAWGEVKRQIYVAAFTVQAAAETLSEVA
# Experimental: (§1) Briefly, 2×10⁵ cells/well of human CD3-expressing Jurkat, cynomolgus T, or human PSMA-specific expressing cells were incubated with a serial dilution of bispecific antibodies for 30 min at 4° C. After incubation, cells were washed and a goat F(ab′)₂ anti-human Fcγ PE labeled secondary (Jackson Immunolabs) was added to the cells for an additional 30 min. Next, cells were washed, re-suspended in cold PBS+1% BSA and analyzed via flow cytometry on a BD FACS Canto II.
# (§2) For FACS analysis, cells were gated by forward scatter height vs. forward scatter area for single events selection, followed by side and forward scatters. The EC₅₀ for cell binding titration was determined using Prism software. Values were calculated using 4-parameter non-linear regression analysis.
# [6] = biological target: T1, soluble heterodimeric hCD3ε/δ.mFc …; assay: SPR MASS-1, 37 C, antigen-capture (hCD3ε/δ.mFc captured), antibody injected
# Experimental: Measurements were conducted on a Sierra Sensors MASS-1 instrument.
# In the antigen-capture format, the MASS-1 high-density amine sensor surface was derivatized with a goat anti-mouse IgG2a polyclonal antibody (Southern Biotech). Soluble heterodimeric CD3 protein was captured and the respective antibodies were injected over the captured antigen.
# Kinetic association (kₐ) and dissociation (kd) rate constants were determined by processing and fitting the data to a 1:1 binding model using MASS-1 AnalyserR2 curve fitting software. Binding dissociation equilibrium constants (KD) and dissociative half-lives (t_{1/2}) were calculated from the kinetic rate constants as: KD (M)=kd/kₐ; and t_{1/2} (min)=(ln 2/(60*kd).
# [7] = biological target: T4, human CD3 on CD3-expressing cells (Jurkat, human T cells) (human, UniProt P07766 23-207; P04234 22-171); assay: FACS on Jurkat cells
# T4 construct: On cells CD3 stands within the T cell receptor complex (also gamma and zeta chains); also called human CD3 expressing Jurkat cells
# T4 sequence (P07766 23-207 limits assumed, chain 1 of 2): as the sequence (chain, as listed by the source, chain 1 of 4) above
# T4 sequence (P04234 22-171 limits assumed, chain 2 of 2): as the sequence (Q95LI8 22-171, chain 2 of 2) above, with V5I, K15N, V20I, T32S, N33D, N34I, A64T, N74S, L83V, R141H counted along it
# Experimental: as §1, §2
binder,measurement,setting,value
"H1H5761P (antibody, human IgG1, V domains shown) VH: QVQLVESGGGVVQPGRSLRLSCAASGFTFSSYGMHWVRQAPGKGLEWVAVISYDGSNKYYADSVKGRFTISRDYSKNTLYLQMNSLRAEDTAVFYCAKGAMVRGVPYNYYYGMDVWGQGTTVTVSS VL: DIQMTQSPSSLSASVGDRVTITCRASQGIRNDLGWFQQKPGKAPKRLIYAASSLQSGVPSRFSGSGSGTEFTLTISSLQPEDFATYYCLQHNSYPYTFGQGTKLEIK",EC50 [M] mfPBMC Proliferation,[1],2.81e-09 M
"H1H5764P (antibody, human IgG1, V domains shown, H1H: human IgG1 Fc) VH: QVQLVESGGGVVQPGRSLRLSCAASGFTFRSFGMHWVRQAPGKGLEWVAVISYDGNYKYYADSVKGRFTISRDNSKNTLYLQMNSLRAEDTAVHYCAKGAMVRGVPYNFYYGMDVWGQGTTVTVSS VL: DIQMTQSPSSLSASVGDRVTITCRASQVIRNDLGWYQQKPGKAPKRLIYAASSLQSGIPSRFSGSGSGTEFTLTISSLQPEDFATYYCLQHNSYPYTFGQGTKLEIK",EC50,[2],0.88 nM
same,EC50 [M] hPBMC Proliferation,[3],3.27e-13 M
same,EC50 [M] mfPBMC Proliferation,[1],4.06e-10 M
"H1H5778P (antibody, human IgG1, V domains shown, H1H: human IgG1 Fc) VH: EVQLVESGGGLVQPGRSLRLSCVASGFTFADFTMHWVRQAPGKGLEWVSGISWNSNSIDYADSVKGRFTISRDNAKKSLFLQMSSLRAEDTALYYCVKDRSGYSRFYYGMDVWGQGTTVTVSS VL: EIVMTQSPATLSVSPGERAILSCRASQNINSNLAWYQQKPGQAPRLLIYGASTRATGVPARFSGSGSGTEFTLTIRSLQSEDFAVYYCQQYYNWPITFGHGTRLEIK",EC50,[2],0.685 nM
same,EC50 [M] hPBMC Proliferation,[3],5.04e-12 M
same,U937 Cytotoxicity Human T-cells,[4],0.341 pM
same,EC50 [M] mfPBMC Proliferation,[1],5.93e-13 M
"H1H5769P (antibody, human IgG1, V domains shown) VH: EVQLVESGGGLVQPGRSLRLSCAASGFTFDDYTMHWVRQVPGKGLEWISGISWNSGSMDYADSVKGRFTISRDNARNSLFLQMNSVRTEDTALYYCAKDKSGYGSFYYGMDVWGQGTTVTVSS VL: EIVLTQSPGTLSLSPGDRATLSCRASQSVSSIYLAWYQQKPGQAPRLLIHGASTRATGIPDRFSGSGSGTDFTLTISRLEPEDFAVYYCQQRAHSPYTFGQGTKLEIK",EC50 [M] mfPBMC Proliferation,[1],8.33e-13 M
"H1H5771P (antibody, human IgG1, V domains shown) VH: EVQLVESGGGLVQPGRSLRLSCAASGFSFDNYAMHWVRQAPGQGLEWVSGISWNSGSRDYADSVKGRFTISRDNARNSLFLQMNSLSNEDTAMYYCAKDKSGYGSYFYGMDVWGQGTTVTVSS VL: EIVLTQSPGTLSLSPGDRATLSCRASQSIRNIYLAWYQQKPGQAPRLLIHGASTRATGIPDRFSGSGSGTDFTLTISRLEPEDFAVYYCQQRVSLPYTFGQGTKLEIK",EC50 [M] hPBMC Proliferation,[3],6.35e-12 M
same,EC50 [M] mfPBMC Proliferation,[1],2.74e-12 M
"H1H5781P (antibody, human IgG1, V domains shown, H1H: human IgG1 Fc) VH: EVQLVESGGGLVQPGRSLRLSCAASGFTFDDFTMHWVRQAPGKGLEWVSDISWNSGSIDYADSVKGRFTISRDNARNSLFLQMSSLRTEDTASYYCIKDKSGYGSYNYGLDVWGQGTTVTVSS VL: EIVLTQSPGTLSLSPGDRATLSCRASQSVSSIYLAWYQQKPGQAPRLLIHGASTRATGIPDRFSGSGSGTDFTLTISRLEPEDFALYYCHQRVSSPYTFGQGTKLEIK",EC50,[2],1.23 nM
same,EC50 [M] hPBMC Proliferation,[3],6.08e-12 M
same,U937 Cytotoxicity Human T-cells,[4],1.83 pM
same,EC50 [M] mfPBMC Proliferation,[1],7.92e-13 M
"H1H5772S (antibody, human IgG1, V domains shown, H1H: human IgG1 Fc; also called H1H5772P) VH: QVQLVESGGGLVQPGRSLRLSCAASGFSFDDYAMHWVRQAPGQGLEWVSGISWNGGSRDYADSVKGRFTISRDNARNSLFLQMNSLFTEDTALYYCAKDKSGYGSYFYGMDVWGQGTTVTVSS VL: EIVLTQSPGILSLSPGDRATLSCRASQSIRNIYLAWYQQKPGQAPRLLIHGASTRATGIPDRFSGSGSGTDFTLTISRLEPEDFAVYYCQQRVSSPYTFGQGTKLEIK",EC50,[2],0.664 nM
same,EC50 [M] hPBMC Proliferation,[3],4.42e-12 M
same,U937 Cytotoxicity Human T-cells,[4],0.689 pM
same,EC50 [M] mfPBMC Proliferation,[1],1.47e-12 M
"H1H5780P (antibody, human IgG1, V domains shown, H1H: human IgG1 Fc) VH: EVQLVESGGGLVQPGRSLRLSCAASGFTFDDYAMHWVRQAPGKGLEWVSGISWNGGSKDYADSVKGRFTISRDNTRNSLSLQMNSLRIEDTALYYCAKDKSGYGSFYYGLDVWGQGTTVTVSS VL: EIVLTQSPGTLSLSPGDRATLSCRASQSIRSIYLAWYQQKPGQAPRLLIHGASTRATGIPDRFSGSGSGTDFTLTISRLEPEDFAVYYCQQRVSSPYTFGQGTKLEIK",EC50,[2],0.762 nM
same,EC50 [M] hPBMC Proliferation,[3],3.44e-12 M
same,U937 Cytotoxicity Human T-cells,[4],4.03 pM
same,EC50 [M] mfPBMC Proliferation,[1],3.13e-13 M
"BSPSMA/CD3-1600 (bispecific antibody, IgG4, V domains shown, modified (chimeric) IgG4 Fc domain; also called PSMA-VH-11810 x CD3-VH-G16) VH 1: QVQLVESGGGVVQPGRSLRLSCAASGFTFSSYGMHWVRQAPGKGLEWVAVISYAGNNKYYADSVKGRFTVSRDNSKKTLYLQMNSLRSEDTAVYYCAKDSYYDFLTDPDVLDIWGQGTMVTVSS VH 2: EVQLVESGGGLVQPGRSLRLSCAASGFTFDDYSMHWVRQAPGKGLEWVSGISWNSGSKGYADSVKGRFTISRDNAKNSLYLQMNSLRAEDTALYYCAKDGSGYGKFYHYGMDVWGQGTTVTVSS VL: DIQMTQSPSSLSASVGDSVTITCRASQSINNYLNWYQQKPGKAPKLLIYTASSLLSGVPSRFSGSGSGTDFTLTISGLHPEDFATYFCQQSFSTPPITFGQGTRLDIK",EC50,[5],1.03 nM
same,Kd,[6],37.8 nM
same,T½,[6],4.7 min
same,koff,[6],0.00243 s⁻¹
same,kon,[6],64300 M⁻¹ s⁻¹
same,EC50,[7],56.8 nM
"BSPSMA/CD3-2100 (bispecific antibody, IgG4, V domains shown, modified (chimeric) IgG4 Fc domain; also called PSMA-VH-11810 x CD3-VH-G21) VH 1: QVQLVESGGGVVQPGRSLRLSCAASGFTFSSYGMHWVRQAPGKGLEWVAVISYAGNNKYYADSVKGRFTVSRDNSKKTLYLQMNSLRSEDTAVYYCAKDSYYDFLTDPDVLDIWGQGTMVTVSS VH 2: EVQLVESGGGLVQPGRSLRLSCAASGFTFDDYSMHWVRQAPGKGLEWVSGISWNSGSKGYADSVKGRFTISRDNAKNSLYLQMNSLRAEDTALYYCAKDGSGYGKFYYYGMDVWGQGTTVTVSS VL: DIQMTQSPSSLSASVGDSVTITCRASQSINNYLNWYQQKPGKAPKLLIYTASSLLSGVPSRFSGSGSGTDFTLTISGLHPEDFATYFCQQSFSTPPITFGQGTRLDIK",EC50,[5],1.14 nM
same,Kd,[6],77.5 nM
same,T½,[6],4.9 min
same,koff,[6],0.00234 s⁻¹
same,kon,[6],30200 M⁻¹ s⁻¹
same,EC50,[7],106 nM
"BSPSMA/CD3-1900 (bispecific antibody, IgG4, V domains shown, modified (chimeric) IgG4 Fc domain; also called PSMA-VH-11810 x CD3-VH-G19) VH 1: QVQLVESGGGVVQPGRSLRLSCAASGFTFSSYGMHWVRQAPGKGLEWVAVISYAGNNKYYADSVKGRFTVSRDNSKKTLYLQMNSLRSEDTAVYYCAKDSYYDFLTDPDVLDIWGQGTMVTVSS VH 2: EVQLVESGGGLVQPGRSLRLSCAASGFTFDDYSMHWVRQAPGKGLEWVSGISWNSGSIGYADSVKGRFTISRDNAKNSLYLQMNSLRAEDTALYYCAKDGSGYGKFYHYGMDVWGQGTTVTVSS VL: DIQMTQSPSSLSASVGDSVTITCRASQSINNYLNWYQQKPGKAPKLLIYTASSLLSGVPSRFSGSGSGTDFTLTISGLHPEDFATYFCQQSFSTPPITFGQGTRLDIK",EC50,[5],1.35 nM
same,Kd,[6],115 nM
same,T½,[6],2.3 min
same,koff,[6],0.00509 s⁻¹
same,kon,[6],44300 M⁻¹ s⁻¹
same,EC50,[7],60.7 nM
